Measured values from paper PMC11700292, “Specific inhibition of fibroblast growth factor receptor 1 signaling by a DNA aptamer”.

T1: FGFR4 extracellular domain-Fc (human, UniProt P22455 22-369)
T1 sequence: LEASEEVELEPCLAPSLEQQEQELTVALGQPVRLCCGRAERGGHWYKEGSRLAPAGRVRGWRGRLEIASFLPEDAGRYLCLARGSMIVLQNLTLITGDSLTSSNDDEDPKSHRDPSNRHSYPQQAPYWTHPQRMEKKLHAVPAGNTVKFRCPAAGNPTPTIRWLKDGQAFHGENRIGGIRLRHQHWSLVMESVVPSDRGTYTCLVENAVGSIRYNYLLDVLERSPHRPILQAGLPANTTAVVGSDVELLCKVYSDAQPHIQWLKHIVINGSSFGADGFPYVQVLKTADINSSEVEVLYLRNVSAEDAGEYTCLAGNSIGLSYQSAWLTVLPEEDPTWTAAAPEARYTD


Key:
[1] = molecular target: FGFR1b extracellular domain-Fc (human) (UniProt P11362); assay: BLI; conditions: BLI (Octet K2, protein A sensor, FGFR-Fc 5 ug/mL), VZ23 31.25-500 nM in PBS (8.1 mM Na2HPO4, 1.5 mM NaH2PO4, 137 mM NaCl, 2.7 mM KCl as given for NMR) with or …
[2] = molecular target: T2, FGFR1c extracellular domain-Fc (human, UniProt P11362-1 22-376); assay: BLI; PBS, no Mg2+; BLI (Octet K2, protein A sensor, FGFR-Fc 5 ug/mL), VZ23 31.25-500 nM in PBS (8.1 mM Na2HPO4, 1.5 mM NaH2PO4, 137 mM NaCl, 2.7 mM KCl as given for NMR) with or without 2 mM MgCl2; pH 7.3 (stated for CD); temperature not stated; conditions: protein: recombinant; tags: IgG1 Fc fusion; antiparallel G-quadruplex-like fold
[3] = molecular target: FGFR1c extracellular domain-Fc;FGF1 (human;human, UniProt P11362-1;P05230 22-376;16-155, |); assay: BLI; preformed FGF1:FGFR1c complex; 250 nM each; BLI (Octet K2, protein A sensor, FGFR-Fc 5 ug/mL), VZ23 31.25-500 nM in PBS (8.1 mM Na2HPO4, 1.5 mM NaH2PO4, 137 mM NaCl, 2.7 mM KCl as given for NMR) with or without 2 mM MgCl2; pH 7.3 (stated for CD); temperature not stated; conditions: protein: recombinant;commercial; tags: IgG1 Fc fusion;; antiparallel G-quadruplex-like fold
[4] = molecular target: T2, FGFR1c extracellular domain-Fc; assay: BLI; 2 mM Mg2+; BLI (Octet K2, protein A sensor, FGFR-Fc 5 ug/mL), VZ23 31.25-500 nM in PBS (8.1 mM Na2HPO4, 1.5 mM NaH2PO4, 137 mM NaCl, 2.7 mM KCl as given for NMR) with or without 2 mM MgCl2; pH 7.3 (stated for CD); temperature not stated; conditions: protein: recombinant; tags: IgG1 Fc fusion; antiparallel G-quadruplex-like fold
[5] = molecular target: FGFR3c extracellular domain-Fc (human, UniProt P22607 23-375); assay: BLI; BLI (Octet K2, protein A sensor, FGFR-Fc 5 ug/mL), VZ23 31.25-500 nM in PBS (8.1 mM Na2HPO4, 1.5 mM NaH2PO4, 137 mM NaCl, 2.7 mM KCl as given for NMR) with or without 2 mM MgCl2; pH 7.3 (stated for CD); temperature not stated; conditions: protein: recombinant; tags: IgG1 Fc fusion; antiparallel G-quadruplex-like fold
[6] = molecular target: T1, FGFR4 extracellular domain-Fc; assay: as above; conditions: protein: recombinant; tags: IgG1 Fc fusion; antiparallel G-quadruplex-like fold
[7] = molecular target: FGFR2b extracellular domain-Fc (human, UniProt P21802-3 22-378); assay: as above; conditions: protein: recombinant; tags: IgG1 Fc fusion; antiparallel G-quadruplex-like fold
[8] = molecular target: FGFR3b extracellular domain-Fc (human, UniProt P22607-2 23-377); assay: as above; conditions: protein: recombinant; tags: IgG1 Fc fusion; antiparallel G-quadruplex-like fold
[9] = molecular target: FGFR2c extracellular domain-Fc (human, UniProt P21802 22-377); assay: as above; conditions: protein: recombinant; tags: IgG1 Fc fusion; antiparallel G-quadruplex-like fold
Sequence of FGFR2c extracellular domain-Fc (P21802 22-377): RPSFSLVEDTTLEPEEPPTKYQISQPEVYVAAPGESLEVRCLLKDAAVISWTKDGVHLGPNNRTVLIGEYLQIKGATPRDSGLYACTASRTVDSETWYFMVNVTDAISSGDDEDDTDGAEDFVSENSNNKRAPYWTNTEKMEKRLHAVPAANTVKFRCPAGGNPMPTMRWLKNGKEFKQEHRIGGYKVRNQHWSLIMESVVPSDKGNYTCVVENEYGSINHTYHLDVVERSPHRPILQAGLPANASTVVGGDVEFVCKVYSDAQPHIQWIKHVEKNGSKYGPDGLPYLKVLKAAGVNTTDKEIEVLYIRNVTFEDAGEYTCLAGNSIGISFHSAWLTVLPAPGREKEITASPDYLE

T2 sequence (P11362 22-376): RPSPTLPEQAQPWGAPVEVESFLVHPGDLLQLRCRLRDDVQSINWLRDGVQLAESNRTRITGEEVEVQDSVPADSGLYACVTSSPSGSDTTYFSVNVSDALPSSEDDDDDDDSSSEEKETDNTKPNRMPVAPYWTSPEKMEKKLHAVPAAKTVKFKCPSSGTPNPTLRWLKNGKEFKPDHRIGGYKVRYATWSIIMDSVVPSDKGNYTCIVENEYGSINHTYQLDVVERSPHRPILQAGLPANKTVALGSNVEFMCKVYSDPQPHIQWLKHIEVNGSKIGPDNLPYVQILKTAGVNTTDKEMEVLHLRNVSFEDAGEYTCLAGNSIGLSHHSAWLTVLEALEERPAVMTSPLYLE
Sequence of FGFR1b extracellular domain-Fc (human) (P11362 whole entry, the tested form may be a part): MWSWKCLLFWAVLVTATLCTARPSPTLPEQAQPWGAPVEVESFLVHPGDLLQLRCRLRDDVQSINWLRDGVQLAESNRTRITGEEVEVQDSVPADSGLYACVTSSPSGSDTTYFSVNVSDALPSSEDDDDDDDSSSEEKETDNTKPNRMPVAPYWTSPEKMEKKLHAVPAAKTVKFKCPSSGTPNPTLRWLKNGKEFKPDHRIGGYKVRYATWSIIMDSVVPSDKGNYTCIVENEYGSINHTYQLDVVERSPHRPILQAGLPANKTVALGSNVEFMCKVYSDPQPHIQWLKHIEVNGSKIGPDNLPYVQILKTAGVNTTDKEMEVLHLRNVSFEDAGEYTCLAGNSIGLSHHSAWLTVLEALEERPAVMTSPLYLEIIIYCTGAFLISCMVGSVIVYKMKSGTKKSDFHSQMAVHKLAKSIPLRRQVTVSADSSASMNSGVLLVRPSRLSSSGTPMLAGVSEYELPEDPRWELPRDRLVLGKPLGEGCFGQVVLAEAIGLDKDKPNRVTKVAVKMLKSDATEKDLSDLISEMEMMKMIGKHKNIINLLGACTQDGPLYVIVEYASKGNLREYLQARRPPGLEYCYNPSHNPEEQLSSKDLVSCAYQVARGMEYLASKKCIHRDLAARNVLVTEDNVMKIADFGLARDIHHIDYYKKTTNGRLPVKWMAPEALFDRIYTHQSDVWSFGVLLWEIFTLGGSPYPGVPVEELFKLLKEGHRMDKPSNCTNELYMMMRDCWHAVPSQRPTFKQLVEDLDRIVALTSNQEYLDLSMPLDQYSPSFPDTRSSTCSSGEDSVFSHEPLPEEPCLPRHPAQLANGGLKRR
Sequence of FGFR1c extracellular domain-Fc;FGF1 (P11362 22-376, chain 1 of 2): as the sequence (P11362 22-376) above
Sequence of FGFR1c extracellular domain-Fc;FGF1 (P05230 16-155, chain 2 of 2): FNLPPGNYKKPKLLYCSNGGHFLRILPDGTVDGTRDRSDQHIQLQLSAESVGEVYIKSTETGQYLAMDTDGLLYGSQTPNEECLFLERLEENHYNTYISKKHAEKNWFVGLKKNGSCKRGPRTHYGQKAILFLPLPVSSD
Sequence of FGFR2b extracellular domain-Fc (P21802 other isoform, or with tags, fused parts or gaps): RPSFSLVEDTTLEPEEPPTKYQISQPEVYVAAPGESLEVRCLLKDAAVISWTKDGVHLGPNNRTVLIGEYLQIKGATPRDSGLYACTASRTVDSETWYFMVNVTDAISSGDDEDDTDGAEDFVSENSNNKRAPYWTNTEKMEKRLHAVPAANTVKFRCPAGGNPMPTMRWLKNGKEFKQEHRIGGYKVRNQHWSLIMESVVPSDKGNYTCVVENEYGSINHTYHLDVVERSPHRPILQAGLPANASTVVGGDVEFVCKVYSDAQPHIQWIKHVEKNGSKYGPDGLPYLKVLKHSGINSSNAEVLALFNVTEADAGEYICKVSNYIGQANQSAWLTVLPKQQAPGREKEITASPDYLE
Sequence of FGFR3c extracellular domain-Fc (P22607 23-375): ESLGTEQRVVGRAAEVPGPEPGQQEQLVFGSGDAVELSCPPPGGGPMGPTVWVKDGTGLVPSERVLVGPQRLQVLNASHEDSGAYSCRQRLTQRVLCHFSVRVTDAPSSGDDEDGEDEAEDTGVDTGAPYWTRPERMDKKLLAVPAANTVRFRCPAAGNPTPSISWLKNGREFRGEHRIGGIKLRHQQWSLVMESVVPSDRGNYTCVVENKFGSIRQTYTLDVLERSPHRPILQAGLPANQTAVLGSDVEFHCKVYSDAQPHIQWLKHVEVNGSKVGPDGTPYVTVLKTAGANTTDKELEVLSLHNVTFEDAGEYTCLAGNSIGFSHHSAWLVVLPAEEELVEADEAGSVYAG
Sequence of FGFR3b extracellular domain-Fc (P22607 other isoform, or with tags, fused parts or gaps): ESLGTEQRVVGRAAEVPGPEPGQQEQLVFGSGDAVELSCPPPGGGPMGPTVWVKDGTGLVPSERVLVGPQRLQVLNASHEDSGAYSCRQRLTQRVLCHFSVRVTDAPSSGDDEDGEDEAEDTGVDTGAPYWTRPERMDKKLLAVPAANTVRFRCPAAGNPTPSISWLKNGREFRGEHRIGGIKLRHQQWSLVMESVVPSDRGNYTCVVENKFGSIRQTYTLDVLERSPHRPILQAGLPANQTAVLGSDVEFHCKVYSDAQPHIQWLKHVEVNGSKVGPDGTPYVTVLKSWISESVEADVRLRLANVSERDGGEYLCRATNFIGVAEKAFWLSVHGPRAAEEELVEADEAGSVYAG

Molecule | Kd ([1]; 2 mM Mg2+) [nM] | Kd ([1]; PBS, no Mg2+) [nM] | Kd [2] [nM] | binding result [3] | Kd [4] [nM] | binding result [5] | binding result [6] | binding result [7] | binding result [8] | binding result [9]
GGGATACAGGGCTTTGTCTATGGTGTGGATGGCGGATACC [VZ23] | 29.8 | 54.6 |  |  |  |  |  |  |  | 
GGGATACAGGGCTTTGTCTATGGTGTGGATGGCGGATACC (structured_DNA) [VZ23] |  |  | 162 ± 48.7 | binds | 65.4 ± 5.5 | no binding | no binding | no binding | no binding | no binding
